Test: soluble on expression in E. coli; label from the status in PepcDB or PDB records

Row | Sequence | soluble on expression in E. coli
1 | MSELDFVRRGQDLKAYRALNWEGSFADYLRLLKEDPRPLRTSFQRVHDMILAHGVEEYTRFKEKLLHYRFFDDPFEGGKDAVFGLDKPLMRLVATLKAAAHRLGPERRILLLHGPVGSAKSTIARLLKKGLEAYSRTEEGKLFTFYWKTEEGPLPCPMHEEPLHLLPQDLREAFLEELRALHPDYPYPLEVEGDLCPVCRFQMREGLRKYEGDLAALLEHEVVVKRLVLSEKDRVGIGTFQPKDEKNQDSTELTGDINYRKVALYGSDSDPRAFNFDGELNIANRGIVEFIEILKLDVAFLYDLLTASQEHKIKSKKFAQTDIDEIVLGHTNEPEYRKLQANEYMEALRDRTIKIDVPYILRVSDEVRIYQRDFAKVRGKHIAPHTLEMAATWAVLTRLEPPKRAGLTLMQKLKLYDGKLLPGWTEEAVRELMGEAKREGLEGISPRYIQDKISNVLVTSEEPCINPFMVMNELEEGLKHHSLISDERTRERYRALLQEVKAEYAEIVKNEVQRAIAADEEALNRLFHNYIDHVKAYVLGEKVKNPYTGAPEPPNERLMRSIEERIDIPESRKDDFRREIMNYIGALALEGKPFTYKDNDRLRRALELKLFDDQKDTIRLSALVSGVVDPETQAKIDVVKARLIRDYGYCEHCASGVLEFAASLFARS | soluble
2 | MGSSHHHHHHSSGLVPRGSHMSKFSYLQNGKASTNGVPHANGHHQQHQNGHSNGVARNGGTATDTLPVAYQQKAATSGPFHMPRTEHVGYTYDTLQEIATYLLERTELRPKVGIICGSGLGTLAEQLTDVDSFDYETIPHFPVSTVAGHVGRLVFGYLAGVPVMCMQGRFHHYEGYPLAKCAMPVRVMHLIGCTHLIATNAAGGANPKYRVGDIMLIKDHINLMGFAGNNPLQGPNDERFGPRFFGMANTYDPKLNQQAKVIARQIGIENELREGVYTCLGGPNFETVAEVKMLSMLGVDAIGMSTVHEIITARHCGMTCFAFSLITNMCTMSYEEEEEHCHDSIVGVGKNREKTLGEFVSRIVKHIHYEAKK | soluble
3 | MRLTGKQTWVFQNDIYVNATGTAVGPKEAEGPLGKKFDISYGDLHCGEENWELAERRLMSDSIQQAVQKGNIKTSQIDFFLAGDLLNQTVTANYVARKWGIPFLGMFSACATSMETLAVGSAFIDGGFANRVLATVSSHNATAERQFRYPTEYGGQKPGTANSTVTGAGSILISNEKSAIKITSATIGKVQDLGITNPLDMGAAMAPAAAHTIQQHFEDLRRSADDYDLIVTGDLSAVGTPIAKQLLLEEGYDLGHIYNDCGLMIYESSQEEVFAGGSGCACSAVVTYGHLLHEMQKGNLQRIFVVATGALLSPMMMQQKETIPTIAHGVVFERVKGELEHHHHHH | soluble
4 | MSLEKNALYFVPLGGAGEIGMNLNLYAHQGKWLMVDLGVTFGNETTPGVDIILPDPSFIEERKGDLVGLVLTHAHEDHVGAVAYLWPYLECPVYATPFTAEFLRHKLREEGIEPDVKLIEIPLGGRFTVGPFDIEMITTTHSIPEPNHLAIRTTAGTVLHTADWKFDPEPLVGPPADEAALRRLGDEGVLAMVGDSTNIFTEGHSASEGDVRRSMIDLFARFQGRIAVGCFASNIARMETIALAAKANGREVALVGRSLWRMMETARTCGYLKGCPAFLGDEEAAKLPRDKVVYICTGSQGEPRAALKRIASGSHPYVSLSAGDVVIFSSRVIPGNERSILQLQNQLVEMGVKLITSRDAMVHVSGHPGAEEVRSLYGMVRPSIALPVHGEFLHLDHHADVARDLGVAHVVRITNGAVVRLDGAEPTVVGKVPFGRLALDGDRLLQIDCEIIRDRKRMGYNGSVAVSLAIDDKGKLLGTPKISARGLLDPEDDADEVADLTNRVRGAVNAVRPADRKDDAAVAEAVRLAVRRVFRQGQNRRPVTDIHVLRVEGHHHHHH | soluble
5 | MEFMMEIQGNRKELMVSKIKNGTVIDHIPAGRAFAVLNVLGIKGHEGFRIALVINVDSKKMGKKDIVKIEDKEISDTEANLITLIAPTATINIVREYEVVKKTKLEVPKVVKGILKCPNPYCITSNDVEAIPTFKTLTEKPLKMRCEYCETIIDENEIMSQILGANNK | soluble
6 | MGSDKIHHHHHHMLPKYEIIKRDIIEKIESGEFSTGEKVYSEGDLKRKYNVSNTTVVKALNDLVNEGYLIRRQGEGTFVRKNLKHRKVFFSEKLSMSNNEKQKSVEETITLVSEEFTDKEIAQILGDKSGSKALLKLTQIALTNDFPWKIQNRYLFADKLRDDSVKRLIEGASLSDELGLQGNMANLPMTMEVSTILLTKDSDELEPLRIIRKSFGEEDSFSLFNIKRLIRGNDGVPIEYSQSFILSDFYQIEIISE | not soluble
7 | MRNVDFSPLYRNAIGFDRLLNLMEANTAKNTSGGYPPYNIEQKDEHNYRITMAVAGFSEDQLDLTQNENMLIVKGERKAEEGKNYVYQGIAERDFERKFQLADYVKVTGASMENGLLHIDLVREIPEAMQPRKIAIGGNNLLESN | not soluble
8 | MGTYTVNVSSLNVRTGPSTSHTVLGSVNKGKTVQVVSEVQDWFKINFNGGTGYVSKDFVTKGGSAVLEHHHHHH | not soluble
9 | MTLNITSKQMDITPAIREHLEERLAKLGKWQTQLISPHFVLNKVPNGFSVEASIGTPLGNLLASATSDDMYKAINEVEEKLERQLNKLQHKSESRRADERLKDSFEN | soluble
10 | HTGTVDIVADKTLYQPGETAKMLITFPEPIDEALLTLERDRVEQQSLLSHPANWLTLQRLNDTQYEARVPVSNSFAPNITFSVLYTRNGQYSFQNAGIKVAVPQLDIRVKTDKTHYQPGELVNVELTSSLKGKPVSAQLTVGVVDEMIYALQPE | not soluble
11 | MQPAVYILASQRNGTLYIGVTSDLVQRIYQHREHLIEGFTSRYNVTMLVWYELHPTMESAITREKQLKKWNRAWKLQLIEENNVSWQDLWFDII | not soluble
12 | MQCFNTIFRLFTDMDEDNEIGLPQKGINQIIKEVVPEMRIANESRDMINACCVEFVKHIAREAQRIASQDQRKTIYHEHVQKALQNLGFTPDYLEAADSVLDACKVEAEKKLRRKNSRLEKCGIPEEKLYEMQQELIQKARQQEIEQQLAHQQAQAAAVAAANAQMFGGPSEGSLAPTDDDYDN | soluble
13 | MGHHHHHHSHRNLDSRTFITIGDRNFEVEADDLVTISELGRGAYGVVEKVRHAQSGTIMAVKRIRATVNSQEQKRLLMDLDINMRTVDCFYTVTFYGALFREGDVWICMELMDTSLDKFYRKVLDKNMTIPEDILGEIAVSIVRALEHLHSKLSVIHRDVKPSNVLINKEGHVKMCDFGISGYLVDSVAKTMDAGCKPYMAPERINPELNQKGYNVKSDVWSLGITMIEMAILRFPYESWGTPFQQLKQVVEEPSPQLPADRFSPEFVDFTAQCLRKNPAERMSYLELMEHPFFTLHKTKKTDIAAFVKEILGEDS | not soluble
14 | MATESSSPSSVRKVVVHLRATGGAPILKQSKFKIPGTDKFAKVIDFLRRQLHSDSLFVYVNSAFSPNPDESVIDLYNNFGFDGKLVVNYACSMAWG | not soluble
15 | EYYDVRGWDPHDRQVYTPIHEACYDRGGIFFAFFDDEQMIAAAALDTLPRGMNGELRQLLFFYVGAGKRGQGWGRRLFQYALHQLPEMGASGLYISSIPNKNTVDFYLAQG | not soluble
16 | MIDLYFAPTPNGHKITLFLEEAELDYRLIKVDLGKGGQFRPEFLRISPNNKIPAIVDHSPADGGEPLSLFESGAILLYLAEKTGLFLSHETRERAATLQWLFWQVGGLGPMLGQNHHFNHAAPQTIPYAIERYQVETQRLYHVLNKRLENSPWLGGENYSIADIACWPWVNAWTRQRIDLAMYPAVKNWHERIRSRPATGQALLKAQLGDERSDS | soluble
17 | MGSDKIHHHHHHMAMTQTENQTAPQQHIRIFDTTLRDGEQSPGVALNHAQKLEIAHTLARMGVDVIEAGFPIASPGDLEGVSRIAREVRGPVITALARANRADIEAAAKGVEAAEKSRIHTFIATSPIHMQKKLNLEPDAVIERAVEAVRLARQYVDDVEFSAEDATRSEWDFLSRIFKAAVEAGATTINVPDTVGYTTPEEMRKLFAYLKAKLPAHVILSSHCHDDLGMAVANSIAAAEGGARQIECTINGIGERAGNASLEEIVMAFHTRRDVYGYETGIRTRELYRASRLVSRLSGMPVQPNKAIVGDNAFAHESGIHQDGVIKARETYEIMNAELVGREAAVLVMGKHSGRAAFRKALTDLGYGDIPDDKVQHLFGRFKDLADRKGQIYAEDLRALVDARSDVPQTFSLEGFQITSGMNMMPVAFVRLHTPDGPVDATAHGDGPVEAAFQAISKITGISPTLESYRIQSVTRGDDALGEVSIHVRHGETQLNGTGVATDIVEASARAWIRVMNMIVAGMGKNKAITQMTP | not soluble
18 | MKNPTVSIIIPVYNAEGTITRCLDSIIHQTYSSIEVIIIDDGSSDLSGSICDNYATKYNYIQVIHKKNEGVSIARQIGVKHSKGLYSIHVDADDYIDKCEIERMMDIALKFNADMVVCDYILEYKKNKFVYQKGMKDACDAFDFLKQIYNGIFIGTLWNKLIKTSLYNNVIFLKQCNYCEDVYILTQILSNNISINYINEALYHYCYDASSLTREINRNYIINRIIFIQEIEKILPLDLDLSRFKAGIKLSILKSGEYTYKEYINLYPNTNIPKELLNKRNLLFLSTANFFIGYQFLKILFNLKKRFKSFHL | not soluble
19 | MPTDEPSKRKSILPTIPTSLMLKKSNEALSDFERTFNDRVMDIFAENRRIDVEEFKKNAECFLNIIRSNKIDLNWGEGGESRYVTITRLMKILKTSPQSIKDLLPHNTVSNFVKITNYNLTIDITLLEELVRTVIHAEESYIKLLPFSENSTEISSYSLQDFVATHFIPIMIEEPENPVYYTAYAVGTIFFLLGARRRDCVYLKDLLASTLLLQLEECIHAENHCLSPPKIDVFTVAQFRTTLSEFRFLDSQRKGLLAPADLKFFRDGIFNEVFTKRIFEISITYEDGRIDFKAFVDFVTALKFRHTTASAKYHFEILDLKDDGLLDEEEIRSISSFQLQNLPDYVPEDNSVNPEVATAELRDMMRLNQNGITLEEFLANRMNSTFAGFLSNSDDYMKYERREQ | not soluble
20 | AHHHHHHGSRFLIRLVPEDKDRAFKVPYNHQYYLQGLIYNAIKSSNPKLATYLHEVKGPKLFTYSLFMAEKREHPKGLPYFLGYKKGFFYFSTCVPEIAEALVNGLLMNPEVRLWDERFYLHEIKVLREPKKFNGSTFVTLSPIAVTVVRKGKSYDVPPMEKEFYSIIKDDLQDKYVMAYGDKPPSEFEMEVLIAKPKRFRIKPGIYQTAWHLVFRAYGNDDLLKVGYEVGFGEKNSLGFGMVKVEGNKTTKEAEEQEKITFNSREELKTGV | not soluble
21 | MGSDKIHHHHHHMFEIKTDDFEGIEIVKLINTVSGEYASIIPSFGGNIHELVLQKHNILHDVIYTNKNKEELSGFYSNLYRGAKLNPFSNRIDKGSYIFENISYSIPLNDAGIHALHGFVWNKPFSITASKTSFEFATLTLSYTHPKDSADFPFSYTLLVTYKLCIEGLMVTTQITNTSPTAIPMGDGWHPYLTLGSSINTLKLQIPSVQKIETTDTLIPTGKIIEDISFFEPALLGERELDNAFVLDSSVEKAETLLFDEEEDLTLVVWQQTDTYPFVHVYTPSDRMSVAIEPCSAIPDAFNRNMIETTLKPAEKKSYVFGIQLR | not soluble
22 | MGSDKIHHHHHHMKSVCLKITSLISLASRITTGLSLMSVMLASPLAVAQMGKHDALLLHAARVFDGHRMRTNTSVQVVNGKVTQIGPRGSFAPDNAKVIDLGDATILPGFIELHAHLSFQHVPADTVLKHGITTIRDVGGPVHKPYGGNGTLRMLTSGPIITAPGGYPIPLTGEKNIATPVSTEKEARETVRNLIDAGAVVIKIALEPGGEPGAPWSCGHAHVHHHNHAAAGNHAHHAQPNHEPPNHEAANDAHSSHPHPNTGLGTAWPLLAERVVKAIVDEAHVNKRRVTAHIAEVKGAEIAINAGIDEWAHVPCDIIPEPLLKKAVSQGVRIVTTLDTLSKCPGVAHNTRVWREQGGELLYGAEIAHPDVPRGIDAQELMYMMQMGNMETLEVLRAATSKAGEHLGLPLLGTLLPGAPADVIAIKGDPTHNLKNLEYPDLVISGGEIVLNNFPAAF | not soluble
